Square brackets hold non-standard residues; d marks the D form. Peptide text beside a SMILES is read from it. * marks the point of attachment. X3 = O=C(CCCCCNCc1nc2c(sc3cc(Br)cnc32)c(=O)[nH]1)*
Assays:
Experiment in all cases: Kinase profiling (radiometric filter-binding)
ERK1 = ERK1 (Homo sapiens, UniProt P27361); assay type: biochemical; conditions: ERK1, 1 µM inhibitor; read-out: Residual activity, %
How it was run: (§1)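 Single-point selectivity screen at 1 µM total inhibitor concentration across a panel of 139 or 140 human PKs, using radioactive filter-binding detection with ATP near or below KM; data are % activity remaining versus untreated control.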

PIM3 = PIM3 (Homo sapiens, UniProt Q86V86); assay type: biochemical; conditions: PIM3, 1 µM inhibitor; read-out: Residual activity, %
How it was run: as §1

MLK1 = MLK1 (Homo sapiens, UniProt P80192); assay type: biochemical; conditions: MLK1, 1 µM inhibitor; read-out: Residual activity, %
How it was run: as §1

CK1γ2 = CK1γ2 (Homo sapiens, UniProt P78368); assay type: biochemical; conditions: CK1γ2, 1 µM inhibitor; read-out: Residual activity, %
How it was run: as §1

PRK2 = PRK2 (Homo sapiens, UniProt Q16513); assay type: biochemical; conditions: PRK2, 1 µM inhibitor; read-out: Residual activity, %
How it was run: as §1

JNK2 = JNK2 (Homo sapiens, UniProt P45984); assay type: biochemical; conditions: JNK2, 1 µM inhibitor; read-out: Residual activity, %
How it was run: as §1

MEKK1 = MEKK1 (Homo sapiens, UniProt Q13233); assay type: biochemical; conditions: MEKK1, 1 µM inhibitor; read-out: Residual activity, %
How it was run: as §1

FGF-R1 = FGF-R1 (Homo sapiens, UniProt P11362); assay type: biochemical; conditions: FGF-R1, 1 µM inhibitor; read-out: Residual activity, %
How it was run: as §1

MELK = MELK (Homo sapiens, UniProt Q14680); assay type: biochemical; conditions: 1 µM inhibitor, read-out: Residual activity, %
How it was run: as §1

BRSK2 = biological target: T1, BRSK2 (Homo sapiens, UniProt Q8IWQ3); assay type: biochemical; conditions: BRSK2, 1 µM inhibitor; read-out: Residual activity, %
T1 sequence (Q8IWQ3 1-736): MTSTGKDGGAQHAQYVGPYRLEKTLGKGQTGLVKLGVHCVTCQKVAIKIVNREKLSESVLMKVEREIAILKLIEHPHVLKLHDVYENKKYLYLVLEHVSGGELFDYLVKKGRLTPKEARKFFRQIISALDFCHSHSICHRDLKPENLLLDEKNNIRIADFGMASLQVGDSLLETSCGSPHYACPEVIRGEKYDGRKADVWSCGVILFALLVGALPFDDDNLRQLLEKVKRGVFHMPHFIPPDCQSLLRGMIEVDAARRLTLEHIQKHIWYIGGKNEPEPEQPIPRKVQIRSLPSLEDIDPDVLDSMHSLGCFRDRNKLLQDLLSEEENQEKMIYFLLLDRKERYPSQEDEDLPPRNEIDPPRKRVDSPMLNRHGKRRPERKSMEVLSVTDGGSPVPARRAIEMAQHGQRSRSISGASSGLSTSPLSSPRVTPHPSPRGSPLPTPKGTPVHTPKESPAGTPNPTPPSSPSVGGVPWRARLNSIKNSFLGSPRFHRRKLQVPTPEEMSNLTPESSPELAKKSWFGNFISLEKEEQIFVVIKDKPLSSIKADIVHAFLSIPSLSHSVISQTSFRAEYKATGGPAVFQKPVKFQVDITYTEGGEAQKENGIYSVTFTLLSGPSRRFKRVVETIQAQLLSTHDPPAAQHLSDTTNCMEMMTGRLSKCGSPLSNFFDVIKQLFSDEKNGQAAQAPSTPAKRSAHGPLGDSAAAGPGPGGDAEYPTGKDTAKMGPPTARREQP
How it was run: as §1

MKK6 = biological target: T2, MKK6 (Homo sapiens, UniProt P52564); assay type: biochemical; conditions: MKK6, 1 µM inhibitor; read-out: Residual activity, %
T2 sequence (P52564 1-334): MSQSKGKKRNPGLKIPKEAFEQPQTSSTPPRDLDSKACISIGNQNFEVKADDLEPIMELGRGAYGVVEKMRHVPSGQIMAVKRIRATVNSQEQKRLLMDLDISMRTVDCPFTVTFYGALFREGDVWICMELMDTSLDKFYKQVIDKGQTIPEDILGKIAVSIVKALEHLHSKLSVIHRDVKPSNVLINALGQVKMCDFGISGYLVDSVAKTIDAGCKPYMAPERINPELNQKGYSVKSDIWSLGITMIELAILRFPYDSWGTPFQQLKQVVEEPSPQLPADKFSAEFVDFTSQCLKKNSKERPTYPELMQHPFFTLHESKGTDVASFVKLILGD
How it was run: as §1

TrkA = TrkA (Homo sapiens, UniProt P04629); assay type: biochemical; conditions: 1 µM inhibitor, read-out: Residual activity, %
How it was run: as §1

ERK5 = ERK5 (Homo sapiens, UniProt Q13164); assay type: biochemical; conditions: ERK5, 1 µM inhibitor; read-out: Residual activity, %
How it was run: as §1

YES1 = YES1 (Homo sapiens, UniProt P07947); assay type: biochemical; conditions: YES1, 1 µM inhibitor; read-out: Residual activity, %
How it was run: as §1

IGF-1R = IGF-1R (Homo sapiens, UniProt P08069); assay type: biochemical; conditions: 1 µM inhibitor, read-out: Residual activity, %
How it was run: as §1

p38 MAPK = assay type: biochemical, human; conditions: 1 µM inhibitor
Method: (§2) Kinase selectivity profiling was performed using the commercial service provided by the MRC PPU International Centre for Kinase Profiling (Dundee, UK) using a radiometric filter-binding assay. Kinases used for analysis were of human origin. The ATP concentration applied for inhibition measurements was at or below the ATP KM value of the particular PK. ARC-3125 and ARC-3126 were screened against 139 PKs, whereas compounds 1, 2, and 8 were screened against 140 PKs. The final total concentration of inhibitors in the selectivity panel was 1 µM. Residual activities were expressed as the percentage of retained activity compared to the control without inhibitor.

AMPK = assay type: biochemical, human; conditions: 1 µM inhibitor
Method: as §2

PINK = assay type: biochemical, human; conditions: 1 µM inhibitor
Method: as §2

[1] = fourth of four lines (Greek letter lost)
[2] = third of four lines (Greek letter lost)

Chain of MEKK1 (Q13233 whole entry): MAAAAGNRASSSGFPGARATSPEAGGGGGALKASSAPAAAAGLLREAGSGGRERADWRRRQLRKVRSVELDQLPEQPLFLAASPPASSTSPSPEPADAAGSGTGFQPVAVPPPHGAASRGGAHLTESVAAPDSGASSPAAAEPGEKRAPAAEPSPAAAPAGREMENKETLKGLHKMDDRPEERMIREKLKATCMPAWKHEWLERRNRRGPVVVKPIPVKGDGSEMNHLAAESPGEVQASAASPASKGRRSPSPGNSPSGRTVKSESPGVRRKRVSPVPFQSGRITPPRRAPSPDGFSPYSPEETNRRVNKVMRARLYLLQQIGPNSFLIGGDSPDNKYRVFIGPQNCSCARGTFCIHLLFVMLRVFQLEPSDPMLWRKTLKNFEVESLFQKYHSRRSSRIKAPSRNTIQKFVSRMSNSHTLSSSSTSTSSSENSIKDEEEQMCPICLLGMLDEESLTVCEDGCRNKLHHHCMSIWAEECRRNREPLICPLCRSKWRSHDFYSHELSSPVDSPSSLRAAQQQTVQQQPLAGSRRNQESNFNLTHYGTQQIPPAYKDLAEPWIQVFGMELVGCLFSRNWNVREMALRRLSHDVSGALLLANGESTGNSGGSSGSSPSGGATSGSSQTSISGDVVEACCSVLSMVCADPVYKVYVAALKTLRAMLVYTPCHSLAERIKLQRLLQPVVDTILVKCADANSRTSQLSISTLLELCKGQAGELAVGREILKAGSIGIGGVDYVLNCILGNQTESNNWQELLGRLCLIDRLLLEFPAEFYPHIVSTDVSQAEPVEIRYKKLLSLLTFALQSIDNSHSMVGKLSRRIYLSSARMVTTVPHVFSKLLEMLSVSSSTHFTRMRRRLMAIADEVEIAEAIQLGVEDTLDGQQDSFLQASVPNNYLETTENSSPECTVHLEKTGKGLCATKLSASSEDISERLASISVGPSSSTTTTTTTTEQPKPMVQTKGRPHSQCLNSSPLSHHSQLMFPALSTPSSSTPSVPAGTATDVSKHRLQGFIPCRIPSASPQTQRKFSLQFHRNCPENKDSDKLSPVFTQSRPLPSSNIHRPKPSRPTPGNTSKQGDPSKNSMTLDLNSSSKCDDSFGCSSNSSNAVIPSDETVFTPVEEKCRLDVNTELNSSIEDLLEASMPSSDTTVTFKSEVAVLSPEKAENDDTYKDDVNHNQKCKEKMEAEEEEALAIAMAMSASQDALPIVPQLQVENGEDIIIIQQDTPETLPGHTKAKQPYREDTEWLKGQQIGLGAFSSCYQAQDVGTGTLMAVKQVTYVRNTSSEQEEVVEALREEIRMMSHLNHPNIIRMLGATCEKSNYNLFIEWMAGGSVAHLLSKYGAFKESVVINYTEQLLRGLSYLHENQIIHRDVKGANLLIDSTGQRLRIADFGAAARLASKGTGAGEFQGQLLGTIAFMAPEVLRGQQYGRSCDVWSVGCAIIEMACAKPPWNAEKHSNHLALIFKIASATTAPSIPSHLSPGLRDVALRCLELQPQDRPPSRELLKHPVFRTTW
Chain of IGF-1R (P08069 31-1367): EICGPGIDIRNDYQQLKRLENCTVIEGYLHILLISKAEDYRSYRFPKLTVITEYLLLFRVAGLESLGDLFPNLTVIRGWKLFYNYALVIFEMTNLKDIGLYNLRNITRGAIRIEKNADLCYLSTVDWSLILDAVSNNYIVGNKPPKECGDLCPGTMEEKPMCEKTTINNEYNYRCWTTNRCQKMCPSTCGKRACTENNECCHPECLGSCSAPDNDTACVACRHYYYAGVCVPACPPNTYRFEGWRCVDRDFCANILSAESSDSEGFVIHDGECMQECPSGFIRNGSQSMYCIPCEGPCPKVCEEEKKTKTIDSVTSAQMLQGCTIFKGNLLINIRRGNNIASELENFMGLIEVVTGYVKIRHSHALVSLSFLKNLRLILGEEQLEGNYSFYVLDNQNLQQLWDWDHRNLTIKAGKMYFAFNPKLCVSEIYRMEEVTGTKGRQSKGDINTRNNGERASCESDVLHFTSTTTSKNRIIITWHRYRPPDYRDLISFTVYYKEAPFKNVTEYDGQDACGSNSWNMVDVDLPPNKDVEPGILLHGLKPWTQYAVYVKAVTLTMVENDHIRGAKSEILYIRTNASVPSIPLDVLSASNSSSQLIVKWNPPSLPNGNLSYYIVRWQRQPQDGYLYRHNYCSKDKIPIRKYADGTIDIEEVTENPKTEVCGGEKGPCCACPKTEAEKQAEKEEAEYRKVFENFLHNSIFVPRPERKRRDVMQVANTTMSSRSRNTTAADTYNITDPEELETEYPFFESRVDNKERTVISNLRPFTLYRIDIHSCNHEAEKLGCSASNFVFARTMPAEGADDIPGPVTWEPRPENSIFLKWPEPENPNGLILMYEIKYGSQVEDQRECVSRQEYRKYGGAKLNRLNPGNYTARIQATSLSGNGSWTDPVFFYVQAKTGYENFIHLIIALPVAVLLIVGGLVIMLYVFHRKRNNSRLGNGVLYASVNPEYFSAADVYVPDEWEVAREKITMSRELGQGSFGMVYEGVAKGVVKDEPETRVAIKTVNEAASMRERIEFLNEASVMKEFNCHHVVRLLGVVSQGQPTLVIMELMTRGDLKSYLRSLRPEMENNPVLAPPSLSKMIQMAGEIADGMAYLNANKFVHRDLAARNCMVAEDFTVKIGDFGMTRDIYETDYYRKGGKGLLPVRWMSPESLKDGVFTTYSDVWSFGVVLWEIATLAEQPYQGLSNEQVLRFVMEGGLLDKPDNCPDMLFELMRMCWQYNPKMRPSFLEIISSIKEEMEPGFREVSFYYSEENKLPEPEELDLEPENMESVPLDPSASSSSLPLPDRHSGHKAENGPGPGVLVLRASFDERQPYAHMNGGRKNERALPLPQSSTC
Chain of CK1γ2 (P78368 whole entry): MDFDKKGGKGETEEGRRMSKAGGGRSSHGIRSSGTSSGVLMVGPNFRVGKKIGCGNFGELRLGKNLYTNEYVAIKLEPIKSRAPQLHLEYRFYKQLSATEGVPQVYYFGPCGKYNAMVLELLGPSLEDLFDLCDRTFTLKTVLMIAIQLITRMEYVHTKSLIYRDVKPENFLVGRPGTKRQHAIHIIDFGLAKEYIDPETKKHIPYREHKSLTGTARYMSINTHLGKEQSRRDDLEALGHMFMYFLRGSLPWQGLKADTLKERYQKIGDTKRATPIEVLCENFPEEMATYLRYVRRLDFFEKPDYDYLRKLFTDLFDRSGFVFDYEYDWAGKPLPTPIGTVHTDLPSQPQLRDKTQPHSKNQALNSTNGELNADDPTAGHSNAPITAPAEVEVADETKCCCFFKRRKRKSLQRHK
Chain of ERK5 (Q13164 whole entry): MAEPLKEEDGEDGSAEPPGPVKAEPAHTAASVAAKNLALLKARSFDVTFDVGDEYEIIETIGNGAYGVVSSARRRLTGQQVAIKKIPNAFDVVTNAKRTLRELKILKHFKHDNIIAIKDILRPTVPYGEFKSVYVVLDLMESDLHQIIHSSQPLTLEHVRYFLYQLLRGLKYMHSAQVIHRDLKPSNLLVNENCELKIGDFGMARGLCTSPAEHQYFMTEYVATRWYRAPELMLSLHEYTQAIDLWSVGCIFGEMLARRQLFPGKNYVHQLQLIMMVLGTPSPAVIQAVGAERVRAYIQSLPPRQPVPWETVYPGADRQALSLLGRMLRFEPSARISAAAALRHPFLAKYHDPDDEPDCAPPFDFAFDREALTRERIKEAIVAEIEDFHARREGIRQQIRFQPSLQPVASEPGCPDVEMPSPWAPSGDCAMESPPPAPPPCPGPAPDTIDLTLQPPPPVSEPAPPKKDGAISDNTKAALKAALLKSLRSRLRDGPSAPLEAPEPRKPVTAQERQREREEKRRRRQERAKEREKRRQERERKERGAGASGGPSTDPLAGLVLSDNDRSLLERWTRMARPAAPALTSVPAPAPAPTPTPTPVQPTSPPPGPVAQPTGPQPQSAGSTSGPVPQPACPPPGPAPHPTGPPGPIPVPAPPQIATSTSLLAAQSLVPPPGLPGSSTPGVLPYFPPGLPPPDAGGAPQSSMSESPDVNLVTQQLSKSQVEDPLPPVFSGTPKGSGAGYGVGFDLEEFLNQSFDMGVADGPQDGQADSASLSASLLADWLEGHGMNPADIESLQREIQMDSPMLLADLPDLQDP
Chain of ERK1 (P27361 whole entry): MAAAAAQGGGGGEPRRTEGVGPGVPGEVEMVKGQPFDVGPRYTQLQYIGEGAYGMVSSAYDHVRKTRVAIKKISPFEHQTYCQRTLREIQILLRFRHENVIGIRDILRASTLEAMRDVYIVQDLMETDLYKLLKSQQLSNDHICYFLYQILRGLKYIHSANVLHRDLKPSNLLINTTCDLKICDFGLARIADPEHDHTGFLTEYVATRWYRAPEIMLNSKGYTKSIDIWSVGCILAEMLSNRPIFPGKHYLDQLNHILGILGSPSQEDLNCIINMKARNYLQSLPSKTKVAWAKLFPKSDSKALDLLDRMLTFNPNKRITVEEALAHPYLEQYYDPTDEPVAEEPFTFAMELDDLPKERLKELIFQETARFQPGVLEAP
Chain of YES1 (P07947 whole entry): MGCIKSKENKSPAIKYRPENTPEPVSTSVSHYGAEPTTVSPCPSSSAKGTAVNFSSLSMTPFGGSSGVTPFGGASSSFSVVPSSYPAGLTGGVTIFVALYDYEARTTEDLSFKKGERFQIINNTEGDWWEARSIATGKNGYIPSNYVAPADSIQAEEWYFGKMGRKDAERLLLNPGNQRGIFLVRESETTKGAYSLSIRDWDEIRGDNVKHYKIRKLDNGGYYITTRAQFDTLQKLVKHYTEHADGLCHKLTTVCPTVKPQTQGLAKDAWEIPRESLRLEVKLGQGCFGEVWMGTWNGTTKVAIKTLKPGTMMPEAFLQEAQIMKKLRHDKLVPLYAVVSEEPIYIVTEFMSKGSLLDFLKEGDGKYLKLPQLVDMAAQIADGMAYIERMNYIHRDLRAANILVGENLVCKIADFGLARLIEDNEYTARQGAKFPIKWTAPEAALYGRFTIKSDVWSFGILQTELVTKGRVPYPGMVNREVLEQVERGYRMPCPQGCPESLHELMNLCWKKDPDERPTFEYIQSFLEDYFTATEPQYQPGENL

SMILES: N=C(N)NCCC[C@@H](NC(=O)CCCCCNC(=O)Cn1cnc2c(I)c(I)c(I)c(I)c21)C(=O)N[C@H](CCCNC(=N)N)C(=O)N[C@H](CCCNC(=N)N)C(=O)N[C@H](CCCNC(=N)N)C(=O)N[C@H](CCCNC(=N)N)C(=O)N[C@H](CCCNC(=N)N)C(=O)N[C@H](CCCCN)C(N)=O [ARC-3125, TIBI-CH2-C(=O)-Ahx-(D-Arg)6-D-Lys-NH2]
- remaining activity at 1 µM (ERK1): 89 ± 7%
- remaining activity at 1 µM (PIM3): 7 ± 1%
- remaining activity at 1 µM (MLK1): 100 ± 8%
- remaining activity at 1 µM (CK1γ2): 45 ± 5%
- remaining activity at 1 µM (PRK2): 16 ± 6%
- remaining activity at 1 µM (JNK2): 123 ± 7%
- remaining activity at 1 µM (MEKK1): 77 ± 1%
- remaining activity at 1 µM (FGF-R1): 100 ± 19%
- remaining activity at 1 µM (MELK): 34 ± 4%
- remaining activity at 1 µM (BRSK2): 107 ± 23%
- remaining activity at 1 µM (MKK6): 110 ± 10%
- remaining activity at 1 µM (TrkA): 97 ± 7%
- remaining activity at 1 µM (ERK5): 47 ± 1%
- remaining activity at 1 µM (YES1): 104 ± 8%

SMILES: N=C(N)NCCC[C@@H](NC(=O)CCCCCNCc1nc2c(sc3cc(Br)cnc32)c(=O)[nH]1)C(=O)N[C@H](CCCNC(=N)N)C(=O)N[C@H](CCCNC(=N)N)C(=O)N[C@H](CCCNC(=N)N)C(=O)N[C@H](CCCNC(=N)N)C(=O)N[C@H](CCCNC(=N)N)C(=O)N[C@H](CCCCN)C(N)=O [ARC-3126, BPTP-Ahx-(D-Arg)6-D-Lys-NH2] (X3-[dR][dR][dR][dR][dR][dR][dK]-NH2)
- remaining activity at 1 µM (ERK1): 84 ± 7%
- remaining activity at 1 µM (PIM3): 13%
- remaining activity at 1 µM (MLK1): 122 ± 21%
- remaining activity at 1 µM (CK1γ2): 66 ± 10%
- remaining activity at 1 µM (PRK2): 58 ± 15%
- remaining activity at 1 µM (JNK2): 38 ± 13%
- remaining activity at 1 µM (MEKK1): 103 ± 2%
- remaining activity at 1 µM (FGF-R1): 102 ± 3%
- remaining activity at 1 µM (MELK): 79 ± 1%
- remaining activity at 1 µM (BRSK2): 100 ± 9%
- remaining activity at 1 µM (MKK6): 105 ± 1%
- remaining activity at 1 µM (TrkA): 112 ± 21%
- remaining activity at 1 µM (ERK5): 92 ± 1%
- remaining activity at 1 µM (IGF-1R): 114 ± 24%
- remaining activity at 1 µM (YES1): 98 ± 12%
- Residual activity, % (p38 MAPK; [1]): 129 ± 10%
- Residual activity, % (p38 MAPK; [2]): 111 ± 4%
- Residual activity, % (AMPK): 38 ± 4%

SMILES: N=C(N)NCCC[C@@H](NC(=O)CNC(=O)[C@@H](CCCNC(=N)N)NC(=O)[C@@H](CCCNC(=N)N)NC(=O)CCCCCCCNCc1nc2c(sc3cc(Br)cnc32)c(=O)[nH]1)C(=O)N[C@H](CCCCN)C(N)=O [Compound 1, BPTP-Aoc-(D-Arg)2-Gly-D-Arg-D-Lys-NH2]
- remaining activity at 1 µM (ERK1): 119 ± 16%
- remaining activity at 1 µM (PIM3): 17%
- remaining activity at 1 µM (MLK1): 112 ± 13%
- remaining activity at 1 µM (CK1γ2): 117 ± 3%
- remaining activity at 1 µM (PRK2): 92 ± 2%
- remaining activity at 1 µM (JNK2): 107 ± 1%
- remaining activity at 1 µM (MEKK1): 108 ± 16%
- remaining activity at 1 µM (FGF-R1): 142 ± 8%
- remaining activity at 1 µM (MELK): 86 ± 5%
- remaining activity at 1 µM (BRSK2): 124 ± 12%
- remaining activity at 1 µM (MKK6): 122 ± 2%
- remaining activity at 1 µM (TrkA): 106 ± 17%
- remaining activity at 1 µM (ERK5): 111 ± 9%
- remaining activity at 1 µM (IGF-1R): 77 ± 8%
- remaining activity at 1 µM (YES1): 110%
- Residual activity, % (p38 MAPK; [1]): 116 ± 6%
- Residual activity, % (p38 MAPK; [2]): 109 ± 7%
- Residual activity, % (PINK): 116 ± 5%
- Residual activity, % (AMPK): 92 ± 9%

SMILES: N=C(N)NCCC[C@@H](NC(=O)CNC(=O)[C@@H](CCCNC(=N)N)NC(=O)[C@@H](CCCNC(=N)N)NC(=O)CCCCCCCNCc1nc2c(sc3ccc(Br)cc32)c(=O)[nH]1)C(=O)N[C@H](CCCCN)C(N)=O [Compound 2, BBTP-Aoc-(D-Arg)2-Gly-D-Arg-D-Lys-NH2]
- remaining activity at 1 µM (ERK1): 125 ± 6%
- remaining activity at 1 µM (PIM3): 4 ± 1%
- remaining activity at 1 µM (MLK1): 98 ± 8%
- remaining activity at 1 µM (CK1γ2): 116 ± 10%
- remaining activity at 1 µM (PRK2): 94 ± 12%
- remaining activity at 1 µM (JNK2): 91 ± 7%
- remaining activity at 1 µM (MEKK1): 119 ± 5%
- remaining activity at 1 µM (FGF-R1): 126 ± 10%
- remaining activity at 1 µM (MELK): 75 ± 9%
- remaining activity at 1 µM (BRSK2): 108 ± 12%
- remaining activity at 1 µM (MKK6): 121 ± 3%
- remaining activity at 1 µM (TrkA): 128 ± 13%
- remaining activity at 1 µM (ERK5): 77 ± 5%
- remaining activity at 1 µM (IGF-1R): 91 ± 6%
- remaining activity at 1 µM (YES1): 104 ± 12%
- Residual activity, % (p38 MAPK; [1]): 115 ± 0%
- Residual activity, % (p38 MAPK; [2]): 117 ± 1%
- Residual activity, % (PINK): 121 ± 17%
- Residual activity, % (AMPK): 91 ± 4%

SMILES: N=C(N)NCCC[C@@H](NC(=O)CNC(=O)[C@@H](CCCNC(=N)N)NC(=O)[C@@H](CCCNC(=N)N)NC(=O)Cn1cc(CNCc2nc3c(sc4ccc(Br)cc43)c(=O)[nH]2)nn1)C(=O)N[C@H](CCCCN)C(N)=O [Compound 3, BBTP-Amt-(D-Arg)2-Gly-D-Arg-D-Lys-NH2]
- remaining activity at 1 µM (ERK1): 107 ± 6%
- remaining activity at 1 µM (PIM3): 6%
- remaining activity at 1 µM (MLK1): 101 ± 9%
- remaining activity at 1 µM (CK1γ2): 88 ± 1%
- remaining activity at 1 µM (PRK2): 67 ± 4%
- remaining activity at 1 µM (JNK2): 129 ± 21%
- remaining activity at 1 µM (MEKK1): 98 ± 2%
- remaining activity at 1 µM (FGF-R1): 110 ± 2%
- remaining activity at 1 µM (MELK): 73 ± 11%
- remaining activity at 1 µM (BRSK2): 96 ± 8%
- remaining activity at 1 µM (MKK6): 126 ± 10%
- remaining activity at 1 µM (TrkA): 95 ± 2%
- remaining activity at 1 µM (ERK5): 93 ± 4%
- remaining activity at 1 µM (IGF-1R): 58 ± 7%
- remaining activity at 1 µM (YES1): 124 ± 1%
- Residual activity, % (p38 MAPK; [1]): 111 ± 1%
- Residual activity, % (p38 MAPK; [2]): 108 ± 8%
- Residual activity, % (PINK): 92 ± 0%
- Residual activity, % (AMPK): 47 ± 6%

Reference: publication PMC8307404, “Crystal Structure-Guided Design of Bisubstrate Inhibitors and Photoluminescent Probes for Protein Kinases of the PIM Family” (Molecules, 2021)
